Source: paper PMC8168301
Values joined by “and” are separate entries in the source; they are usually repeats but may differ in a detail not shown here. Equal entries are not always repeated. Where two headings read alike, the source gives them in different places.

How the values were obtained:
[1] = target: T1, N WT (SARS-CoV-2, UniProt P0DTC9 1-419); assay: fluorescence polarization
[2] = target: T2, N NTD-LKR-CTD (SARS-CoV-2, UniProt P0DTC9 44-369); assay: fluorescence polarization
[3] = target: N NTD-LKR-CTD-Carm (SARS-CoV-2, UniProt P0DTC9 44-419); assay: fluorescence polarization
[4] = target: N NTD-LKR (SARS-CoV-2, UniProt P0DTC9 44-247); assay: fluorescence polarization
[5] = target: T3, N CTD (SARS-CoV-2, UniProt P0DTC9 248-369); assay: fluorescence polarization
[6] = target: T4, N NTD (SARS-CoV-2, UniProt P0DTC9 44-176); assay: fluorescence polarization
[7] = target: T3, N CTD; assay: fluorescence polarization; remark: listed apart in the source
[8] = target: N LKR-CTD (SARS-CoV-2, UniProt P0DTC9 177-369); assay: fluorescence polarization
[9] = target: N NTD-LKR;N CTD (SARS-CoV-2;SARS-CoV-2, UniProt P0DTC9;P0DTC9 44-247;248-369, |); assay: fluorescence polarization
[10] = target: N NTD;N LKR-CTD (SARS-CoV-2;SARS-CoV-2, UniProt P0DTC9;P0DTC9 44-176;177-369, |); assay: fluorescence polarization
[11] = target: T4, N NTD; assay: fluorescence polarization; remark: listed apart in the source
[12] = target: T1, N WT; assay: fluorescence anisotropy
[13] = target: T2, N NTD-LKR-CTD; assay: fluorescence anisotropy
[14] = target: T2, N NTD-LKR-CTD; assay: fluorescence polarization; remark: listed apart in the source

B1: 19-nt slRNA (structured_RNA)
RNA: GGAAGAUUAAUAAUUUUCC
- Kd [1]: 51 ± 4 nM
- Kd [2]: 220 ± 20 nM
- Kd [3]: 100 ± 10 nM
- Kd [4]: 2500 nM and 3000 nM
- Kd [5]: 65000 ± 44000 nM
- Kd [6]: 124000 ± 84000 nM

B2: 20-nt ssRNA (ssRNA)
RNA: UUUCACCUCCCUUUCAGUUU
- Kd [1]: 7 ± 1 nM
- Kd [7]: 13000 ± 5000 nM
- Kd [3]: 6 ± 2 nM
- Kd [4]: 500 ± 80 nM
- Kd [8]: 350 ± 40 nM
- Kd [9]: 440 ± 40 nM
- Kd [10]: 720 ± 90 nM
- Kd [11]: 16000 ± 12000 nM
- Kd [12]: 7 ± 1 nM
- Kd [13]: 6 ± 2 nM
- Kd [14]: 6 ± 2 nM
